Reference: paper PMC7247549, “Biochemical Convergence of Mitochondrial Hsp70 System Specialized in Iron–Sulfur Cluster Biogenesis” (International Journal of Molecular Sciences, 2020)

Tests used:
[1] = molecular target: Isu1-GST fusion protein (S. cerevisiae) (UniProt Q03020); test: pull-down; Isu1-GST (30 μM) incubated with increasing Ssq1, 4 mM ADP, PD buffer (40 mM HEPES-KOH pH 7.5, 100 mM KCl, 1 mM DTT, 10 mM MgCl2, 5% glycerol), 15 min at 25 °C, then glutathione resin; SDS-PAGE, Coomassie, densitometry, Michaelis-Menten hyperbolic fit
[2] = molecular target: T1, Ssq1 (S. cerevisiae)
T1 sequence (Q05931 whole entry, looked up): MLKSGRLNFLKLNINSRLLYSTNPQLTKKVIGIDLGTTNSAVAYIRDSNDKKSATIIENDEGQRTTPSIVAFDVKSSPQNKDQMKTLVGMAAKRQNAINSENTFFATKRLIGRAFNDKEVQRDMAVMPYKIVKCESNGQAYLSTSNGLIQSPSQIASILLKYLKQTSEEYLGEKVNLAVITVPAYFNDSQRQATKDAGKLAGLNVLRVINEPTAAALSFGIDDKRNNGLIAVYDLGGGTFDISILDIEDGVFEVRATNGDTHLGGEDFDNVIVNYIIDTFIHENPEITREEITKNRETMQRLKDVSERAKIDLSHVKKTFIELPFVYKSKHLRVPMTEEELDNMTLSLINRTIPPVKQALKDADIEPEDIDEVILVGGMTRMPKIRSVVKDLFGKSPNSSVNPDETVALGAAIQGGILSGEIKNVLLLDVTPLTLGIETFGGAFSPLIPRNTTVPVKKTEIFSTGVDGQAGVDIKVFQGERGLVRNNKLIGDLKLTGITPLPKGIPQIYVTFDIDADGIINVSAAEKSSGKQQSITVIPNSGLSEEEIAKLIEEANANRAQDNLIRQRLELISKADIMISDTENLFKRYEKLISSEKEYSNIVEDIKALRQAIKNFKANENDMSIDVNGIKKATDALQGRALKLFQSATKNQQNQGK

[3] = molecular target: T1, Ssq1 (S. cerevisiae); conditions: scale: fold
[4] = substrate: Nc1ncnc2c1ncn2[C@@H]1O[C@H](COP(=O)(O)OP(=O)(O)OP(=O)(O)O)[C@@H](O)[C@H]1O; test: steady-state ATPase, PK/LDH NADH-coupled assay; type: biochemical, Saccharomyces cerevisiae; conditions: 2.5 μM Ssq1 with 2.5 μM nucleotide exchange factor Mge1, no Isu1 or Hsc20 mentioned, pH 7.5, 150 mM KCl, 20 mM Mg acetate, 23 °C
[5] = substrate: Nc1ncnc2c1ncn2[C@@H]1O[C@H](COP(=O)(O)OP(=O)(O)OP(=O)(O)O)[C@@H](O)[C@H]1O; test: purified protein; conditions: 1 μM HscA, no exchange factor, no IscU or HscB mentioned, pH 7.5, 150 mM KCl, 20 mM Mg acetate, 23 °C

Chain of Isu1-GST fusion protein (S. cerevisiae) (Q03020 28-165): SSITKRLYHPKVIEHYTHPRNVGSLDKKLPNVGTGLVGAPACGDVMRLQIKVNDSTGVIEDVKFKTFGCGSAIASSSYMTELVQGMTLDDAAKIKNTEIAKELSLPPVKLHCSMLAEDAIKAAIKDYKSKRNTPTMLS

Molecule Ssq1 (natural protein) has a Km (with ADP) [1] of 2.18 µM.

B1: Hsc20 (natural protein)
chain: TSTFYELFPKTFPKKLPIWTIDQSRLRKEYRQLQAQHHPDMAQQGSEQSSTLNQAYHTLKDPLRRSQYMLKLLRNIDLTQEQTSNEVTTSDPQLLLKVLDIHDELSQMDDEAGVKLLEKQNKERIQDIEAQLGQCYNDKDYAAAVKLTVELKYWYNLAKAFKDWAPGKQLEMNH
In the case of B1, the apparent Km of Hsc20 for stimulation of Ssq1 ATPase activity (radioactive assay, 10 μM Isu1, 0.5 μM Mge1), compared with that of HscB for HscA (fold (affinity, against HscA for HscB)) [2] is reported as 8 and the apparent Km of Hsc20 (0.0025-0.25 μM) for stimulating the pull-down of Ssq1 with Isu1-GST in ATP, compared with that of HscB [3] is reported as 4.

B2: Ssq1 (Saccharomyces cerevisiae S288C) (protein)
chain: PQLTKKVIGIDLGTTNSAVAYIRDSNDKKSATIIENDEGQRTTPSIVAFDVKSSPQNKDQMKTLVGMAAKRQNAINSENTFFATKRLIGRAFNDKEVQRDMAVMPYKIVKCESNGQAYLSTSNGLIQSPSQIASILLKYLKQTSEEYLGEKVNLAVITVPAYFNDSQRQATKDAGKLAGLNVLRVINEPTAAALSFGIDDKRNNGLIAVYDLGGGTFDISILDIEDGVFEVRATNGDTHLGGEDFDNVIVNYIIDTFIHENPEITREEITKNRETMQRLKDVSERAKIDLSHVKKTFIELPFVYKSKHLRVPMTEEELDNMTLSLINRTIPPVKQALKDADIEPEDIDEVILVGGMTRMPKIRSVVKDLFGKSPNSSVNPDETVALGAAIQGGILSGEIKNVLLLDVTPLTLGIETFGGAFSPLIPRNTTVPVKKTEIFSTGVDGQAGVDIKVFQGERGLVRNNKLIGDLKLTGITPLPKGIPQIYVTFDIDADGIINVSAAEKSSGKQQSITVIPNSGLSEEEIAKLIEEANANRAQDNLIRQRLELISKADIMISDTENLFKRYEKLISSEKEYSNIVEDIKALRQAIKNFKANENDMSIDVNGIKKATDALQGRALKLFQSATKNQQNQGK
B2 showed a Km [4] of 25 µM.

B3: HscA (Escherichia coli K-12) (protein)
chain: MALLQISEPGLSAAPHQRRLAAGIDLGTTNSLVATVRSGQAETLADHEGRHLLPSVVHYQQQGHSVGYDARTNAALDTANTISSVKRLMGRSLADIQQRYPHLPYQFQASENGLPMIETAAGLLNPVRVSADILKALAARATEALAGELDGVVITVPAYFDDAQRQGTKDAARLAGLHVLRLLNEPTAAAIAYGLDSGQEGVIAVYDLGGGTFDISILRLSRGVFEVLATGGDSALGGDDFDHLLADYIREQAGIPDRSDNRVQRELLDAAIAAKIALSDADSVTVNVAGWQGEISREQFNELIAPLVKRTLLACRRALKDAGVEADEVLEVVMVGGSTRVPLVRERVGEFFGRPPLTSIDPDKVVAIGAAIQADILVGNKPDSEMLLLDVIPLSLGLETMGGLVEKVIPRNTTIPVARAQDFTTFKDGQTAMSIHVMQGERELVQDCRSLARFALRGIPALPAGGAHIRVTFQVDADGLLSVTAMEKSTGVEASIQVKPSYGLTDSEIASMIKDSMSYAEQDVKARMLAEQKVEAARVLESLHGALAADAALLSAAERQVIDDAAAHLSEVAQGDDVDAIEQAIKNVDKQTQDFAARRMDQSVRRALKGHSVDEV
B3 gave a Km [5] of 28 µM.
